{"source": "patent US20240018501A1", "about": "“HIGHER PERFORMANCE PROTEASES FOR SCARLESS PEPTIDE TAG REMOVAL” (priority 2017, published 2024)", "key": {"CylA": {"system": "CylA", "experiment": "CylA proteolytic cleavage of leader peptides (MALDI-TOF MS)", "format": "biochemical, Enterococcus faecalis", "procedure": "Targeted peptides were dissolved in H2O to a final concentration of 3 mg/mL. To a 85 μL solution of peptides, 10 μL of 500 mM HEPES buffer (pH 7.5) was added followed by 5 μL of 0.5 mg/mL AspN protease (for modified CylLL and CylLS peptides), 0.1 mg/mL CylA protease (for modified and unmodified CylLL, CylLS peptides, and modified HalA2-GDVQAE peptide) or 0.1 mg/mL LicP protease (for LicA2). For cleavage tests of the engineered GDVQAE peptides, CylA was added to a final concentration of 0.01 mg/mL, whereas the peptide was added to a concentration of 0.3 mg/mL with 50 mM HEPES buffer (pH 7.5). The protease cleavage reaction mixtures were kept at 25° C. for 1 to 48 h. Osmotic pressure was adjusted with NaCl solution with a final concentration of 150 mM. The digested peptide mixture was directly used for antimicrobial and hemolytic assay. For the kinetic analysis of CylA and its mutant proteins, His6-CylA-27-412 and His6-CylA-27-412-E95A proteins were added to a final concentration of 500 ng/mL and 2.5 μg/mL (22 nM and 110 nM), respectively, with modified CylLS supplied at a concentration of 0.3 mg/mL (36 μM). The reactions were allowed to proceed at room temperature and were stopped by 1% TFA at different time points for LC/MS analysis. Halα and Halβ were obtained by factor Xa cleavage of modified HalA1Xa and HalA2 Xa peptides using the procedure of Y. Shi, et al. J. Am. Chem. Soc. […]"}, "MBP-ElxP": {"system": "MBP-ElxP", "experiment": "MBP-ElxP activity assay by MALDI-TOF MS", "format": "biochemical, Staphylococcus epidermidis", "details": "non-cognate NisA and NisA mutants", "procedure": "A typical activity assay consisted of 50 mM Tris HCl pH 8.0, 50 μM peptide, 5 μM MBP-ElxP in a final volume of 100 μL. The sample was incubated for 2 h at room temperature. To monitor cleavage activity, samples were desalted using a zip tip concentrator (Millipore), mixed in a 1:1 ratio with sinapinic acid, and spotted on a MALDI-TOF Bruker plate. Ion intensities for the resulting precursor peptide, leader peptide and core peptide were normalized and the proteolytic efficiency was measure as the amount of substrate left after cleavage reaction (Table 1). Reactions were performed with tagged enzyme and substrates unless otherwise noticed."}, "[1]": {"experiment": "Storage and freeze-thaw stability of the proteases", "format": "physicochemical"}, "LicP": {"system": "LicP", "experiment": "LicP self-cleavage and intermolecular cleavage (SDS-PAGE, MALDI-TOF MS)", "format": "biochemical, Bacillus licheniformis ATCC 14580", "procedure": "Expression and purification of LicP and LicP mutant proteins. E. coli BL21 (DE3) cells were transformed with one of the following plasmids: pRSFDuet-1/LicP-25-433, pRSFDuet-1/LicP-25-433-S376A, pRSFDuet-1/LicP-25-433-H186A, pRSFDuet-1/LicP-25-433-E100A or pRSFDuet-1/LicP-25-433-E100A-E102A, and plated on an LB plate containing 50 mg/L kanamycin. A single colony was picked and grown in 20 mL of LB containing 50 mg/L kanamycin at 37° C. for 12 h and the resulting culture was inoculated into 2 L of LB containing 50 mg/L kanamycin. Cells were cultured at 37° C. until the OD at 600 nm reached 0.5, cooled and IPTG was added to a final concentration of 0.1 mM. The cells were cultured at 18° C. for another 10 h before harvesting. The cell pellet was resuspended on ice in LanP buffer (20 mM HEPES, 1 M NaCl, pH 7.5 at 25° C.) and lysed by homogenization. The lysed sample was centrifuged at 23,700×g for 30 min and the pellet was discarded. […] Protein concentration was quantified by the absorbance at 280 nm. The extinction coefficient for His6-LicP-25-433 was calculated as 46,300 M^−1 cm^−1. […]\nIntermolecular cleavage of His6-LicP-25-433-S376A by His6-LicP-25-433. […] The three reactions were allowed to proceed at room temperature for 0, 2, 4, 7 and 19 h before being stopped by addition of SDS loading buffer and boiling at 95° C. for 10 min and analyzed by SDS-PAGE."}}, "note": "Ends that are not written are not given here."}
{"molecule": "His6-NisA-GDVQAE: linear NisA with engineered GDVQAE recognition sequence", "values": [{"measurement": "leader peptide removal / cleavage by CylA", "setting": "CylA", "result": "successfully removed"}]}
{"molecule": "wild type NisA: non-cognate lanthipeptide precursor peptide of nisin, His6-tagged (MSTKDFNLDLVSVSKKDSGASPRITSISLCTPGCKTGALMGCNMKTATCHCSIHVSK; cysteine pairing not given here; also: His6-tagged, tag position not given here)", "values": [{"measurement": "cleavage by ElxP", "setting": "MBP-ElxP", "result": "does not cleave"}]}
{"molecule": "His6-LicP-25-433 (protein) GSSHHHHHHSQDPKEQAGEQYLLLEHVKDKSKLLDTAEQFHIHADVIEEIGFAKVTGEKQKLAPFTKKLAEKVGADVIEKPIANTAVNETESVISGSPAWGLDGILELKEYLWFAAKQTDSYRTYQIERGHPDVKVALIDSGLDLDHPDLKASVNTNGGWNYIDGKPVSGDPTGHGTQTAGMINIIAPDVTITPYQVLDEKGGDSYNIMKAMVDAVNDGHEVINISTGSYTSLDREGKVLMKAYQRAANYAAKHQVLVFSSAGNKGVNLDEMRKTENKVHLPSALKHVVSVGSNMKSNNISPYSNQGREIEFTAPGGYLGETYDQDGMVRVTDLVLTTYPKGKDNTALDQMLNIPKGYSLSYGTSLAAPQVAGTAALVISEYRERHHRKPSAKQVHHILRKSALDLGKPGKDVIYGYGEVRAYQALKMMNKE", "values": [{"measurement": "activity after multiple rounds of freeze-thaw", "setting": "[1]", "result": "no obvious decrease in activity"}, {"measurement": "activity after storage", "setting": "[1]; 12 weeks at 4° C", "result": "persistent activity"}, {"measurement": "Complete Reaction? (LicP cleavage; [LicP] 2 µM, [Substrate] 65 µM, 30 h at RT)", "setting": "NisA-NDVNPE-I1W, P13068", "result": "N"}, {"measurement": "removal of the NisA leader peptide by LicP, MALDI-TOF MS", "setting": "NisA-NDVNPE-I1W, P13068", "result": "also accepted by LicP, although some substrate still remained after 30 hours of incubation"}, {"measurement": "Complete Reaction? (LicP cleavage; [LicP] 2 µM, [Substrate] 65 µM, 30 h at RT)", "setting": "NisA-NDVNPE-I1G, P13068", "result": "Y"}, {"measurement": "removal of the NisA leader peptide by LicP, MALDI-TOF MS", "setting": "NisA-NDVNPE-I1G, P13068", "result": "in front of a Gly or Ile residue was slightly less efficient, but complete consumption of precursor peptides was still observed"}, {"measurement": "Complete Reaction? (LicP cleavage; [LicP] 0.2 µM, [Substrate] 65 µM, 20 h at RT)", "setting": "NisA-NDVNPE-I1C, P13068", "result": "Y"}, {"measurement": "removal of the NisA leader peptide by LicP, MALDI-TOF MS", "setting": "NisA-NDVNPE-I1C, P13068", "result": "The highest proteolytic efficiency was obtained when the P1′ position was occupied by Thr or Cys"}, {"measurement": "time-dependent cleavage by LicP, gel-based assay (100 µM peptide, 0.4 µM LicP)", "setting": "LicA2-D-5A", "result": "LicA2-D-5A and LicA2-D-5K are processed much more slowly"}, {"measurement": "time-dependent cleavage by LicP, gel-based assay (100 µM peptide, 0.4 µM LicP)", "setting": "LicA2-V-4L", "result": "still accepted by LicP with a slightly reduced cleavage efficiency"}, {"measurement": "Complete Reaction? (LicP cleavage; [LicP] 0.5 µM, [Substrate] 50 µM, 12 h at 4 C)", "setting": "MBP-BamL", "result": "Y"}, {"measurement": "removal of the MBP tag, SDS-PAGE time course, against TEV protease", "setting": "MBP-BamL", "result": "LicP was capable of removing the MBP-tag in front of the BamL protein with similar efficiency as TEV"}, {"measurement": "time-dependent cleavage by LicP, gel-based assay (100 µM peptide, 0.4 µM LicP)", "setting": "LicA2-N-3A", "result": "alanine substitution at both sites did not alter the processing efficiency of LicP significantly"}, {"measurement": "time-dependent cleavage by LicP, gel-based assay (100 µM peptide, 0.4 µM LicP)", "setting": "LicA2-P-2A", "result": "alanine substitution at both sites did not alter the processing efficiency of LicP significantly"}, {"measurement": "time-dependent cleavage by LicP, gel-based assay (100 µM peptide, 0.4 µM LicP)", "setting": "LicA2-E-1Q", "result": "even substitution with structurally related amino acids Asp and Gln was not tolerated"}, {"measurement": "Complete Reaction? (LicP cleavage; [LicP] 2 µM, [Substrate] 65 µM, 30 h at RT)", "setting": "NisA-NDVNPE, P13068", "result": "Y"}, {"measurement": "removal of the NisA leader peptide by LicP, MALDI-TOF MS", "setting": "NisA-NDVNPE, P13068", "result": "in front of a Gly or Ile residue was slightly less efficient, but complete consumption of precursor peptides was still observed"}, {"measurement": "time-dependent cleavage by LicP, gel-based assay (100 µM peptide, 0.4 µM LicP)", "setting": "LicA2-E-1A", "result": "LicA2-E-1A was not a substrate under the assay conditions"}, {"measurement": "Complete Reaction? (LicP cleavage; [LicP] 2 µM, [Substrate] 65 µM, 30 h at RT)", "setting": "NisA-NDVNPE-I1L, P13068", "result": "N"}, {"measurement": "removal of the NisA leader peptide by LicP, MALDI-TOF MS", "setting": "NisA-NDVNPE-I1L, P13068", "result": "also accepted by LicP, although some substrate still remained after 30 hours of incubation"}, {"measurement": "Complete Reaction? (LicP cleavage; [LicP] 2 µM, [Substrate] 65 µM, 30 h at RT)", "setting": "NisA-NDVNPE-I1E, P13068", "result": "N"}, {"measurement": "removal of the NisA leader peptide by LicP, MALDI-TOF MS", "setting": "NisA-NDVNPE-I1E, P13068", "result": "Peptides with Glu or Phe in the P1′ position turned out to be poor substrates"}, {"measurement": "cleavage by LicP, MALDI-TOF MS", "setting": "DVNPE-Licβ", "result": "the 5-residue oligopeptide was successfully removed"}, {"measurement": "Complete Reaction? (LicP cleavage; [LicP] 1 µM, [Substrate] 290 µM, 6 h at RT)", "setting": "Linear LicA2", "result": "Y"}, {"measurement": "Complete Reaction? (LicP cleavage; [LicP] 2 µM, [Substrate] 65 µM, 30 h at RT)", "setting": "NisA-NDVNPE-I1F, P13068", "result": "N"}, {"measurement": "removal of the NisA leader peptide by LicP, MALDI-TOF MS", "setting": "NisA-NDVNPE-I1F, P13068", "result": "Peptides with Glu or Phe in the P1′ position turned out to be poor substrates"}, {"measurement": "time-dependent cleavage by LicP, gel-based assay (100 µM peptide, 0.4 µM LicP)", "setting": "LicA2-E-1D", "result": "even substitution with structurally related amino acids Asp and Gln was not tolerated"}, {"measurement": "Complete Reaction? (LicP cleavage; [LicP] 0.2 µM, [Substrate] 180 µM, 4 h at RT)", "setting": "ProcA1.7-NDVNPE", "result": "Y"}, {"measurement": "Complete Reaction? (LicP cleavage; [LicP] 0.2 µM, [Substrate] 65 µM, 20 h at RT)", "setting": "NisA-NDVNPE-I1T, P13068", "result": "Y"}, {"measurement": "removal of the NisA leader peptide by LicP, MALDI-TOF MS", "setting": "NisA-NDVNPE-I1T, P13068", "result": "The highest proteolytic efficiency was obtained when the P1′ position was occupied by Thr or Cys"}, {"measurement": "competitive MALDI-TOF MS assay (21 nM LicP, 17 µM each of modified LicA2 and linear G-LicA2)", "setting": "linear G-LicA2", "result": "the cleavage of linear LicA2 only started after the modified LicA2 had been consumed and required more enzyme to be completed"}, {"measurement": "time-dependent cleavage by LicP, gel-based assay (100 µM peptide, 0.4 µM LicP)", "setting": "LicA2-D-5K", "result": "LicA2-D-5A and LicA2-D-5K are processed much more slowly"}, {"measurement": "Complete Reaction? (LicP cleavage; [LicP] 2 µM, [Substrate] 65 µM, 30 h at RT)", "setting": "NisA-NDVNPE-I1K, P13068", "result": "N"}, {"measurement": "removal of the NisA leader peptide by LicP, MALDI-TOF MS", "setting": "NisA-NDVNPE-I1K, P13068", "result": "also accepted by LicP, although some substrate still remained after 30 hours of incubation"}, {"measurement": "time-dependent cleavage by LicP, gel-based assay (100 µM peptide, 0.4 µM LicP)", "setting": "LicA2-V-4A", "result": "still accepted by LicP with a slightly reduced cleavage efficiency"}, {"measurement": "time-dependent cleavage by LicP, gel-based assay (100 µM peptide, 0.4 µM LicP)", "setting": "LicA2-V-4F", "result": "LicA2-V-4F was no longer processed"}, {"measurement": "Complete Reaction? (LicP cleavage; [LicP] 21 nM, [Substrate] 17 µM, 10 min at RT)", "setting": "Modified LicA2", "result": "Y"}, {"measurement": "rate of cleavage in a competitive MALDI-TOF MS assay (21 nM LicP, 17 µM each of modified LicA2 and linear G-LicA2)", "setting": "Modified LicA2", "result": "complete consumption of modified LicA2 peptide within 10 min, corresponding to a rate of at least 80 min^-1"}, {"measurement": "intermolecular cleavage of the S376A mutant by wild type LicP, SDS-PAGE, 1:1, 0.1 mg/mL each", "setting": "His6-LicP-25-433-S376A", "result": "autoprotolysis can take place intermolecularly, albeit slowly"}, {"measurement": "LicP self-cleavage during expression", "setting": "LicP", "result": "a cleavage event occurred"}]}
